Sequences and labels used below:
B1: LINE1-mini (parent)
chain: GGCAGAGCUCAACACAGCGUGGCAAAGUGGCUGUGGCUAGACUGCC

This series covers variants of B1. The series can be described thus: self-cleavage, relative activity (ratio to wild type); higher = more cleavage; in vitro, sequencing; the parent is a self-cleaving ribozyme.
In the case of G7C A12G, the self-cleavage amounted to 0.06. The figure for G7C A12C is 0.03. To G7A U28C belongs 0.11; to G7A U28A, 0.16.

Turning to G7A U28G, the self-cleavage was found to be 0.16. As to G7C G17A, the self-cleavage amounted to 0.07. The figure for G7C G17C is 0.1; for G7C G17U it is 0.09. To G7A C46A belongs 0.23; to G7A C46G, 0.36; to G7A C46U, 0.32. To G7A C18G belongs 0.19; to G7A C18A, 0.07; to G7A C18U, 0.12. For the variant A6U G36C, the self-cleavage was determined as 0.25.

For the variant A6U G36U, the self-cleavage was found to be 0.08. To A6U G36A belongs 0.26; to G7C C13U, 0.14.

Turning to G7C C13A, the self-cleavage was 0.11. As for G7C C13G, the self-cleavage was determined as 0.18.

Take G7A A39C: the self-cleavage amounted to 0.08. As to G7A A39G, the self-cleavage was determined as 0.07. To G7A A39U belongs 0.25; to G7A C15G, 0.12. The figure for G7A C15U is 0.24; for G7A C15A it is 0.19; for G7A G35C it is 0.13. As to G7A G35A, the self-cleavage was 0.3. The figure for G7A G35U is 0.11; for A6U G21U it is 0.76; for A6U G21C it is 0.52. On to A6U G21A, for which the self-cleavage came out at 2.16.

For the variant G7A U32C, the self-cleavage amounted to 0.17. To G7A U32A belongs 0.13; to G7A U32G, 0.11; to G7A G33C, 0.12. To G7A G33A belongs 0.29; to G7A G33U, 0.18. As to G7C A26C, the self-cleavage was determined as 0.6. For the variant G7C A26U, the self-cleavage was determined as 0.15. The figure for G7C A26G is 0.11; for G7C G30U it is 0.1; for G7C G30A it is 0.13.

On to G7C G30C, for which the self-cleavage came out at 0.13. To G7A C10U belongs 0.04; to G7A C10G, 0.02. Turning to G7A C10A, the self-cleavage came to 0.05. As to A6U A14G, the self-cleavage came to 0.1. To A6U A14C belongs 0.11; to A6U A14U, 0.27.

As to G7C A41G, the self-cleavage turned out to be 0.04. To G7C A41C belongs 0.09; to G7C A41U, 0.21; to A6G U38G, 0.01.

Regarding A6G U38A, the self-cleavage was 0.06. To A6G U38C belongs 0.07. For the variant G7C C46G, the self-cleavage was 0.08. The figure for G7C C46A is 0.18. To G7C C46U belongs 0.08; to A6U A39G, 0.04; to A6U A39U, 0.35. The figure for A6U A39C is 0.51; for A6U G33U it is 0.16. A6U G33A: the self-cleavage worked out at 0.1. The figure for A6U G33C is 0.43; for G7C A24U it is 0.19. To G7C A24G belongs 0.12; to G7C A24C, 0.09; to G7A G44A, 0.19. The figure for G7A G44C is 0.28; for G7A G44U it is 0.18; for G7A U9C it is 0.04. Regarding G7A U9G, the self-cleavage turned out to be 0.08.

Take G7A U9A: the self-cleavage was 0.3. The figure for G7A A41U is 0.18. In the case of G7A A41C, the self-cleavage came out at 0.21. As to G7A A41G, the self-cleavage was determined as 0.12.

Regarding G7A G29A, the self-cleavage is 0.09. Consider G7A G29U, for which the self-cleavage was determined as 0.2.

In the case of G7A G29C, the self-cleavage is 0.07. The figure for G7A C31G is 0.08. As to G7A C31A, the self-cleavage was 0.21.

In the case of G7A C31U, the self-cleavage came out at 0.08. To A6U A16C belongs 0.09; to A6U A16U, 0.11. With A6U A16G, the self-cleavage was determined as 0.14. To G7C C23A belongs 0.09. To G7C C23G belongs 0.1. The figure for G7C C23U is 0.1; for A6U A11G it is 0.04. Consider A6U A11U, for which the self-cleavage worked out at 0.09. To A6U A11C belongs 0.06. The figure for G7C G19C is 0.05. Regarding G7C G19U, the self-cleavage worked out at 0.07. To G7C G19A belongs 0.14. The figure for G7C A25C is 0.14; for G7C A25G it is 0.06; for G7C A25U it is 0.16. To G7A G22C belongs 0.13; to G7A G22U, 0.14; to G7A G22A, 0.14.

For A6U U28C, the self-cleavage is 0.74. On to A6U U28A, for which the self-cleavage amounted to 0.4.

In the case of A6U U28G, the self-cleavage was 0.6.

For the variant A6U A26U, the self-cleavage stood at 0.85.

Turning to A6U A26G, the self-cleavage was found to be 0.31. A6U A26C: the self-cleavage turned out to be 0.56. To A6U G30C belongs 1.36; to A6U G30A, 1.65. In the case of A6U G30U, the self-cleavage worked out at 1.27. To A6U C31U belongs 0.31; to A6U C31A, 0.38. Turning to A6U C31G, the self-cleavage turned out to be 0.13. The figure for G7C C42A is 0.08.

For the variant G7C C42G, the self-cleavage was determined as 0.1.

With G7C C42U, the self-cleavage came out at 0.09. The figure for A6U A41C is 0.07; for A6U A41G it is 2.27. To A6U A41U belongs 0.09. To G7A C42G belongs 0.05; to G7A C42A, 0.18; to G7A C42U, 0.16. For the variant G7A C13A, the self-cleavage was found to be 0.45.

For G7A C13G, the self-cleavage came out at 0.26. With G7A C13U, the self-cleavage was determined as 0.29. To A6U A24C belongs 1.21.

On to A6U A24U, for which the self-cleavage came out at 1.6.

Consider A6U A24G, for which the self-cleavage stood at 0.94. To A6U G17U belongs 0.26; to A6U G17A, 0.11; to A6U G17C, 0.59. The figure for G7A G21U is 0.24. The figure for G7A G21A is 0.34; for G7A G21C it is 0.12; for G7A G36C it is 0.27. For the variant G7A G36A, the self-cleavage amounted to 0.43. As to G7A G36U, the self-cleavage amounted to 0.12. The figure for G7A A14C is 0.5; for G7A A14U it is 0.16; for G7A A14G it is 0.24.

For G7C C31U, the self-cleavage stood at 0.05. To G7C C31A belongs 0.09; to G7C C31G, 0.06; to G7C C37U, 0.13. The figure for G7C C37G is 0.03. For G7C C37A, the self-cleavage was determined as 0.09. To A6U G22C belongs 0.37; to A6U G22U, 0.79. The figure for A6U G22A is 0.57. The figure for G7C C18A is 0.12. As to G7C C18G, the self-cleavage turned out to be 0.09. To G7C C18U belongs 0.19; to G7A C8A, 0.35; to G7A C8U, 0.43.

For the variant G7A C8G, the self-cleavage was 0.17. Turning to G7A A11G, the self-cleavage came out at 0.02. The figure for G7A A11C is 0.03; for G7A A11U it is 0.03; for A6U U32C it is 0.1. To A6U U32G belongs 0.13; to A6U U32A, 0.15; to A6U U38G, 0.04.

In the case of A6U U38C, the self-cleavage is 0.27. Consider A6U U38A, for which the self-cleavage was found to be 0.23.

On to G7A U43A, for which the self-cleavage was found to be 0.15. Take G7A U43G: the self-cleavage was 0.57. G7A U43C: the self-cleavage is 0.25.
